*1 amine or outer side, *2 acyl side, *3 side chain or, on linkers, in order; H or OH if unused. Side-chain parts run from the residue outwards. The star is where a group is joined. C20 diacid = O=C(O)CCCCCCCCCCCCCCCCCCC(=O)*; C18 diacid = O=C(O)CCCCCCCCCCCCCCCCC(=O)*; C16 diacid = O=C(O)CCCCCCCCCCCCCCC(=O)*; γGlu = O=C(O)[C@H](CCC(=O)[*:2])N[*:1]
T1: human calcitonin receptor (a) (human, UniProt P30988 25-474)
T1 sequence (looked up): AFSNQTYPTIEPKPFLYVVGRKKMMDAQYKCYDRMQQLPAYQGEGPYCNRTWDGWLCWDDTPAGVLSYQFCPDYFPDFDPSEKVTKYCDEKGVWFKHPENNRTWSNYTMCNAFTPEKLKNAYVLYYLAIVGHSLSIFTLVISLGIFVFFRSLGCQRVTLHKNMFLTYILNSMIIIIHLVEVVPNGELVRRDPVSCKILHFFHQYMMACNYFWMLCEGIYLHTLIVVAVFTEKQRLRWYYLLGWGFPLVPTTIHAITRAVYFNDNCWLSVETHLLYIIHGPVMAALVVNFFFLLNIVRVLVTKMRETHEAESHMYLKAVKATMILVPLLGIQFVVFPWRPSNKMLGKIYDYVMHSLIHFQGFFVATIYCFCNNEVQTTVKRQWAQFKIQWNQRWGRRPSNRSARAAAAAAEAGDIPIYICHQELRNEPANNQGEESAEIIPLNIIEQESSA

T2: human amylin-3(a) receptor (human, UniProt P30988 25-474; O60896 24-148)
T2 sequence (looked up) 1: T1 sequence (looked up)
T2 sequence (looked up) 2: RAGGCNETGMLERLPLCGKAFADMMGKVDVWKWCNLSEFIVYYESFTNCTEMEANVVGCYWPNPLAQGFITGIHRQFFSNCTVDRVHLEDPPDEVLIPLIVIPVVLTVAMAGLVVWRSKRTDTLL

B1: N^1-[(4S)-4-carboxy-4-(19-carboxynonadecanoylamino)butanoyl]-[Ala1,Ser2,His3,Leu4,Ser5,Ala7,Gln8,Glu14,His17,Asp21,Pro25,Pro28,Pro29,Asp31,Pro37]-human amylin (peptide)
peptide: {C20 diacid-γGlu}-ASHLSTAQTQRLAEFLHHSSDNFGPILPPTDVGSNTP-NH2
SMILES: CC[C@H](C)[C@H](NC(=O)[C@@H]1CCCN1C(=O)CNC(=O)[C@H](Cc1ccccc1)NC(=O)[C@H](CC(N)=O)NC(=O)[C@H](CC(=O)O)NC(=O)[C@H](CO)NC(=O)[C@H](CO)NC(=O)[C@H](Cc1c[nH]cn1)NC(=O)[C@H](Cc1c[nH]cn1)NC(=O)[C@H](CC(C)C)NC(=O)[C@H](Cc1ccccc1)NC(=O)[C@H](CCC(=O)O)NC(=O)[C@H](C)NC(=O)[C@H](CC(C)C)NC(=O)[C@H](CCCNC(=N)N)NC(=O)[C@H](CCC(N)=O)NC(=O)[C@@H](NC(=O)[C@H](CCC(N)=O)NC(=O)[C@H](C)NC(=O)[C@@H](NC(=O)[C@H](CO)NC(=O)[C@H](CC(C)C)NC(=O)[C@H](Cc1c[nH]cn1)NC(=O)[C@H](CO)NC(=O)[C@H](C)NC(=O)CC[C@H](NC(=O)CCCCCCCCCCCCCCCCCCC(=O)O)C(=O)O)[C@@H](C)O)[C@@H](C)O)C(=O)N[C@@H](CC(C)C)C(=O)N1CCC[C@H]1C(=O)N1CCC[C@H]1C(=O)N[C@H](C(=O)N[C@@H](CC(=O)O)C(=O)N[C@H](C(=O)NCC(=O)N[C@@H](CO)C(=O)N[C@@H](CC(N)=O)C(=O)N[C@H](C(=O)N1CCC[C@H]1C(N)=O)[C@@H](C)O)C(C)C)[C@@H](C)O
B2: N^1-[(4S)-4-carboxy-4-[[(4S)-4-carboxy-4-(17-carboxyheptadecanoylamino)butanoyl]amino]butanoyl]-[Ala1,Ser2,His3,Leu4,Ser5,Ala7,Gln8,Ala10,Glu14,His17,Pro25,Pro2 … (peptide)
peptide: {C18 diacid-γGlu-γGlu}-ASHLSTAQTARLAEFLHHFGPILPPTDVGSETP-NH2
SMILES: CC[C@H](C)[C@H](NC(=O)[C@@H]1CCCN1C(=O)CNC(=O)[C@H](Cc1ccccc1)NC(=O)[C@H](Cc1c[nH]cn1)NC(=O)[C@H](Cc1c[nH]cn1)NC(=O)[C@H](CC(C)C)NC(=O)[C@H](Cc1ccccc1)NC(=O)[C@H](CCC(=O)O)NC(=O)[C@H](C)NC(=O)[C@H](CC(C)C)NC(=O)[C@H](CCCNC(=N)N)NC(=O)[C@H](C)NC(=O)[C@@H](NC(=O)[C@H](CCC(N)=O)NC(=O)[C@H](C)NC(=O)[C@@H](NC(=O)[C@H](CO)NC(=O)[C@H](CC(C)C)NC(=O)[C@H](Cc1c[nH]cn1)NC(=O)[C@H](CO)NC(=O)[C@H](C)NC(=O)CC[C@H](NC(=O)CC[C@H](NC(=O)CCCCCCCCCCCCCCCCC(=O)O)C(=O)O)C(=O)O)[C@@H](C)O)[C@@H](C)O)C(=O)N[C@@H](CC(C)C)C(=O)N1CCC[C@H]1C(=O)N1CCC[C@H]1C(=O)N[C@H](C(=O)N[C@@H](CC(=O)O)C(=O)N[C@H](C(=O)NCC(=O)N[C@@H](CO)C(=O)N[C@@H](CCC(=O)O)C(=O)N[C@H](C(=O)N1CCC[C@H]1C(N)=O)[C@@H](C)O)C(C)C)[C@@H](C)O
B3: N^1-acetyl,N{Epsilon-25}-[(4S)-4-carboxy-4-(17-carboxyheptadecanoylamino)butanoyl]-[Ala1,Ser2,Gln3,Leu4,Ser5,Ala7,Gln8,Glu14, His17,Asp21,Lys25, Pro28, … (peptide)
peptide: Ac-ASQLSTAQTQRLAEFLHHSSDNFGK([γGlu-C18 diacid])ILPPTDVGSNTP-NH2
SMILES: CC[C@H](C)[C@H](NC(=O)[C@H](CCCCNC(=O)CC[C@H](NC(=O)CCCCCCCCCCCCCCCCC(=O)O)C(=O)O)NC(=O)CNC(=O)[C@H](Cc1ccccc1)NC(=O)[C@H](CC(N)=O)NC(=O)[C@H](CC(=O)O)NC(=O)[C@H](CO)NC(=O)[C@H](CO)NC(=O)[C@H](Cc1c[nH]cn1)NC(=O)[C@H](Cc1c[nH]cn1)NC(=O)[C@H](CC(C)C)NC(=O)[C@H](Cc1ccccc1)NC(=O)[C@H](CCC(=O)O)NC(=O)[C@H](C)NC(=O)[C@H](CC(C)C)NC(=O)[C@H](CCCNC(=N)N)NC(=O)[C@H](CCC(N)=O)NC(=O)[C@@H](NC(=O)[C@H](CCC(N)=O)NC(=O)[C@H](C)NC(=O)[C@@H](NC(=O)[C@H](CO)NC(=O)[C@H](CC(C)C)NC(=O)[C@H](CCC(N)=O)NC(=O)[C@H](CO)NC(=O)[C@H](C)NC(C)=O)[C@@H](C)O)[C@@H](C)O)C(=O)N[C@@H](CC(C)C)C(=O)N1CCC[C@H]1C(=O)N1CCC[C@H]1C(=O)N[C@H](C(=O)N[C@@H](CC(=O)O)C(=O)N[C@H](C(=O)NCC(=O)N[C@@H](CO)C(=O)N[C@@H](CC(N)=O)C(=O)N[C@H](C(=O)N1CCC[C@H]1C(N)=O)[C@@H](C)O)C(C)C)[C@@H](C)O
B4: N^1-acetyl,N{Epsilon-25}-[(4S)-4-carboxy-4-(17-carboxyheptadecanoylamino)butanoyl]-[Ala1,Ser2,Gln3,Leu4,Ser5,Ala7,Gln8,Glu14,His17,Asp21, Pro22,Lys25, … (peptide)
peptide: Ac-ASQLSTAQTQRLAEFLHHSSDPFGK([γGlu-C18 diacid])IPSSTDVGPDTP-NH2
SMILES: CC[C@H](C)[C@H](NC(=O)[C@H](CCCCNC(=O)CC[C@H](NC(=O)CCCCCCCCCCCCCCCCC(=O)O)C(=O)O)NC(=O)CNC(=O)[C@H](Cc1ccccc1)NC(=O)[C@@H]1CCCN1C(=O)[C@H](CC(=O)O)NC(=O)[C@H](CO)NC(=O)[C@H](CO)NC(=O)[C@H](Cc1c[nH]cn1)NC(=O)[C@H](Cc1c[nH]cn1)NC(=O)[C@H](CC(C)C)NC(=O)[C@H](Cc1ccccc1)NC(=O)[C@H](CCC(=O)O)NC(=O)[C@H](C)NC(=O)[C@H](CC(C)C)NC(=O)[C@H](CCCNC(=N)N)NC(=O)[C@H](CCC(N)=O)NC(=O)[C@@H](NC(=O)[C@H](CCC(N)=O)NC(=O)[C@H](C)NC(=O)[C@@H](NC(=O)[C@H](CO)NC(=O)[C@H](CC(C)C)NC(=O)[C@H](CCC(N)=O)NC(=O)[C@H](CO)NC(=O)[C@H](C)NC(C)=O)[C@@H](C)O)[C@@H](C)O)C(=O)N1CCC[C@H]1C(=O)N[C@@H](CO)C(=O)N[C@@H](CO)C(=O)N[C@H](C(=O)N[C@@H](CC(=O)O)C(=O)N[C@H](C(=O)NCC(=O)N1CCC[C@H]1C(=O)N[C@@H](CC(=O)O)C(=O)N[C@H](C(=O)N1CCC[C@H]1C(N)=O)[C@@H](C)O)C(C)C)[C@@H](C)O
B5: N^1-[(4S)-4-carboxy-4-(15-carboxypentadecanoylamino)butanoyl]-[Ala1,Ser2,His3,Leu4,Ser5,Ala7,Gln8,Ala10,Glu14,His17,Asp21,Pro25,Pro28,Pro29,Asp31,Pro37]-human … (peptide)
peptide: {C16 diacid-γGlu}-ASHLSTAQTARLAEFLHHSSDNFGPILPPTDVGSNTP-NH2
SMILES: CC[C@H](C)[C@H](NC(=O)[C@@H]1CCCN1C(=O)CNC(=O)[C@H](Cc1ccccc1)NC(=O)[C@H](CC(N)=O)NC(=O)[C@H](CC(=O)O)NC(=O)[C@H](CO)NC(=O)[C@H](CO)NC(=O)[C@H](Cc1c[nH]cn1)NC(=O)[C@H](Cc1c[nH]cn1)NC(=O)[C@H](CC(C)C)NC(=O)[C@H](Cc1ccccc1)NC(=O)[C@H](CCC(=O)O)NC(=O)[C@H](C)NC(=O)[C@H](CC(C)C)NC(=O)[C@H](CCCNC(=N)N)NC(=O)[C@H](C)NC(=O)[C@@H](NC(=O)[C@H](CCC(N)=O)NC(=O)[C@H](C)NC(=O)[C@@H](NC(=O)[C@H](CO)NC(=O)[C@H](CC(C)C)NC(=O)[C@H](Cc1c[nH]cn1)NC(=O)[C@H](CO)NC(=O)[C@H](C)NC(=O)CC[C@H](NC(=O)CCCCCCCCCCCCCCC(=O)O)C(=O)O)[C@@H](C)O)[C@@H](C)O)C(=O)N[C@@H](CC(C)C)C(=O)N1CCC[C@H]1C(=O)N1CCC[C@H]1C(=O)N[C@H](C(=O)N[C@@H](CC(=O)O)C(=O)N[C@H](C(=O)NCC(=O)N[C@@H](CO)C(=O)N[C@@H](CC(N)=O)C(=O)N[C@H](C(=O)N1CCC[C@H]1C(N)=O)[C@@H](C)O)C(C)C)[C@@H](C)O
B6: N^1-[(4S)-4-carboxy-4-(17-carboxyheptadecanoylamino)butanoyl]-[Ala1,Ser2,His3,Leu4,Ser5,Ala7,Gln8,Glu14,His17,Asp21, Pro25,Pro28,Pro29,Asp31, Pro37]-human … (peptide)
peptide: {C18 diacid-γGlu}-ASHLSTAQTQRLAEFLHHSSDNFGPILPPTDVGSNTP-NH2
SMILES: CC[C@H](C)[C@H](NC(=O)[C@@H]1CCCN1C(=O)CNC(=O)[C@H](Cc1ccccc1)NC(=O)[C@H](CC(N)=O)NC(=O)[C@H](CC(=O)O)NC(=O)[C@H](CO)NC(=O)[C@H](CO)NC(=O)[C@H](Cc1c[nH]cn1)NC(=O)[C@H](Cc1c[nH]cn1)NC(=O)[C@H](CC(C)C)NC(=O)[C@H](Cc1ccccc1)NC(=O)[C@H](CCC(=O)O)NC(=O)[C@H](C)NC(=O)[C@H](CC(C)C)NC(=O)[C@H](CCCNC(=N)N)NC(=O)[C@H](CCC(N)=O)NC(=O)[C@@H](NC(=O)[C@H](CCC(N)=O)NC(=O)[C@H](C)NC(=O)[C@@H](NC(=O)[C@H](CO)NC(=O)[C@H](CC(C)C)NC(=O)[C@H](Cc1c[nH]cn1)NC(=O)[C@H](CO)NC(=O)[C@H](C)NC(=O)CC[C@H](NC(=O)CCCCCCCCCCCCCCCCC(=O)O)C(=O)O)[C@@H](C)O)[C@@H](C)O)C(=O)N[C@@H](CC(C)C)C(=O)N1CCC[C@H]1C(=O)N1CCC[C@H]1C(=O)N[C@H](C(=O)N[C@@H](CC(=O)O)C(=O)N[C@H](C(=O)NCC(=O)N[C@@H](CO)C(=O)N[C@@H](CC(N)=O)C(=O)N[C@H](C(=O)N1CCC[C@H]1C(N)=O)[C@@H](C)O)C(C)C)[C@@H](C)O

Experiments:
[1] = target: T1, human calcitonin receptor (a); experiment: cell-based or functional assay
[2] = target: T2, human amylin-3(a) receptor; experiment: cell-based or functional assay

Binder	hCalcR potency, EC50 (pM); CRE-luciferase reporter in BHK cells [1] [pM]	hAmyR3 potency, EC50 (pM); CRE-luciferase reporter in BHK cells [2] [pM]
B1	1.3	0.9
B2	1.15	1.11
B3	1.19	1.38
B4	1	1.5
B5	1.5	1.62
B6	1.89	1.64
